Molecular target: CXCR2-4A/IL (S342A/S346A/S347A/S348A and I323A/L324A) (human)
Assay: co-IP

β-arrestin1, sequence (P49407 whole entry): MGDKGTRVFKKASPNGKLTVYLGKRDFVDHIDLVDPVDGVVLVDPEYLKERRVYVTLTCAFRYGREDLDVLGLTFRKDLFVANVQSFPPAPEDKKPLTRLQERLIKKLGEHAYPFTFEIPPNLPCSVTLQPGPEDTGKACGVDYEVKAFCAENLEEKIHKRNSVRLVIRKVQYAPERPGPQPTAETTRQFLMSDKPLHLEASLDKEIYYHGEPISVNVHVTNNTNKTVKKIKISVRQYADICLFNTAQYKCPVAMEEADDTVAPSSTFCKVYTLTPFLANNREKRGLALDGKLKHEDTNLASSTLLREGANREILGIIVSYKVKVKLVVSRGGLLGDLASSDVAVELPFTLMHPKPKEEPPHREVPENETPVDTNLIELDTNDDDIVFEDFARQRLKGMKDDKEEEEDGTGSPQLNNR

reduction of binding (co-precipitated β-arrestin1): 90%
Substance: β-arrestin1 (from UniProt P49407 1-418) (natural protein)

— publication PMC3966550
